Positions of bridges follow the written chain, without caps; N, C: chain ends. No end group written: not given here.

The target of assay [1] is T1, recombinant wild-type (wt) human kallikrein 2 (human, UniProt P20151 25-261).
T1 construct: Enzymatically active hK2; in phage assays captured on wells by MAb 5E4, in enzyme assays in solution; also called hK2; HK2
Briefly: phage display selection on hK2 captured by MAb 5E4, four rounds. As for the experimental part: The phage display libraries were constructed in fUSE-5-phage as previously described (Koivunen et al. 1994). We screened libraries with the structures CX₇C, CX₈C, X₉, X₁₀, X₁₁, CX₃CX₃CX₃C, CX₈, CX₉, X₂CX₁₁C, where C stands for cysteine and X for any of the randomly occurring amino acids. Screening was performed according to Koivunen et al. (Koivunen et al. 1994). We screened each peptide library against hK2, which was captured by MAb 5E4 coated into microtiter wells (Wu, Leinonen et al. 2000). MAb 5E4 binds PSA and hK2 in an equimolar manner and reacts with an epitope which is remote from the active site of these enzymes (Stenman et al. 1999), (Leinonen, Wu et al. 2002). Twenty four ng of hK2 was incubated in antibody-coated wells for 30 minutes at 37° C. in Tris/NaCl buffer followed by washing of unbound hK2. An aliquot of phage libraries containing 10¹⁰-10¹¹ transducing units was added into the microtiter wells in 100 μL of 1% BSA in TBS, which was composed of 0.05 mol/L Tris buffer (pH 7.7) containing 0.154 mol/L NaCl and 8 mmol/L NaN3. Incubation took place at 4° C. with gentle shaking for 16-24 hours in the first round and for 1 hour for the following three rounds. The phages were removed and wells were washed with TBS containing 0.5% Tween 20. For elution of the bound phage 0.1 M Glycine-HCl, pH 2.2 containing 0.1% BSA was added. The eluted phage suspension was neutralized with 1 M Tris buffer, pH 9.0, amplified by infection of Escherichia coli K91 cells and purified by polyethylene glycol precipitation (Wu, Leinonen et al. 2000). After four rounds of selection and amplification single stranded DNA from individual phage clones was prepared. The peptide sequences were determined after amplification by PCR (Koivunen et al. 2001). The relevant part of the viral DNA was sequenced with an ABI 310 Genetic analyzer and Dye Terminator Cycle Sequencing Core Kit (PE Applied Biosystems, Foster City, Calif., USA) using the primer 5′-TAATACGACTCACTATAGGGCAAGCTGATAAACCGATACAAT-3′ (SEQ ID NO: 130).

Assay [2] addresses T1, recombinant wild-type (wt) human …. Nature of the assay: competition phage IFMA on hK2 captured by MAb 5E4; 5 µM synthetic peptide. As for the experimental part:
The phage IFMA was performed essentially as described (Wu, Leinonen et al. 2000). In this assay, 50 ng of hK2 in 200 μL of assay buffer was captured onto wells coated with MAb 5E4. After washing, 2.5 μL of phage (10⁸-10⁹ infectious particles) and 200 μL assay buffer were added to wells. After incubation for 1 h, the wells were washed and filled with 200 μL of assay buffer containing 100 ng Eu-labeled anti-phage polyclonal antibody recognizing the M13 coat protein of the phage. After incubation for 60 min, the wells were washed 4 times, and enhancement solution (Perkin Elmer-Wallac) was added. The fluorescence was quantified with a Victor fluorometer in time resolved mode (Perkin Elmer-Wallac).
The relative binding sites of the peptides on hK2 were mapped by competition experiments with chemically synthesized and phage peptides. The protocol was based on the IFMA method described above except that phages and the synthetic peptides were reacted together with hK2. Briefly, each of the synthetic peptides at 5 μM concentration was added into the wells in which hK2 had been captured by MAb 5E4. After incubation for 30 min each phage was added. After 1 h incubation, the wells were washed and the assay was as described above for IFMA.

Assay [3] shares this target. Briefly: Lineweaver-Burke plots; cleavage of 0-400 µM S-2302 by 0.2 µM hK2 at 4 µM peptide.
Assay [4] has the same target. Nature of the assay: cell-based or functional assay.
For assay [5] the target is unchanged. Briefly: cell-based or functional assay. The source holds these as a separate data set.

B1: phage carrying peptide HK2p04 as part of pIII protein (peptide)
chain: CFRQGCWVIT
modifications: disulfide (positions not given here); also: displayed as fusion to phage pIII protein
notes: also called phage p04; HK2p04 phage clone (X10 library); not shown: pIII coat protein of fUSE-5 filamentous phage
B1: in assay [1], the binding result is reported as “binds”.

B2: phage carrying peptide HK2p06 as part of pIII protein (peptide)
chain: CYRMPTCMQRD
modifications: disulfide (positions not given here); also: displayed as fusion to phage pIII protein
notes: also called phage p06; HK2p06 phage clone (X11 library); not shown: pIII coat protein of fUSE-5 filamentous phage
Take B2: the binding result in assay [1] is “binds”.

B3: phage carrying peptide HK2p03 as part of pIII protein (peptide)
chain: PARRPFPVTA
notes: also called phage p03; HK2p03 phage clone (X10 library); not shown: pIII coat protein of fUSE-5 filamentous phage
For B3, the binding result in assay [1] is “binds”.

B4: synthetic peptide HK2p06 (CYRMPTCMQRD) (peptide)
peptide: CYRMPTCMQRD
modifications: disulfide 1-7 (inferred)
notes: Two Cys residues, said to indicate a cyclic structure
In the case of B4, in assay [2], the binding result is “binds”.

As a reminder, the Ki is the equilibrium dissociation constant of an inhibitor or competing ligand from its target. Usually inhibition stands for the drop in the measured response relative to a control, in per cent. Regarding ARFKVWWAAG (S1A variant of HK2p01) [ARFKVWWAAG (SEQ ID NO:56)], in assay [3], the Ki amounted to 1.41 µM. In addition, the “IC50 for hK2 inhibition (cleavage of S-2302)” value in assay [4] amounted to 2.2 µM. For the same molecule, the inhibition in assay [5] was 94%.

As to SRFKVWWAAG [synthetic peptide HK2p01 (SRFKVWWAAG)], in assay [4], the “IC50 for hK2 inhibition (cleavage of S-2302)” value was 3.4 µM.

B5: phage carrying peptide HK2p02 as part of pIII protein (peptide)
chain: AARRPFPAPS
notes: also called phage p02; HK2p02 phage clone (X10 library); not shown: pIII coat protein of fUSE-5 filamentous phage
As for B5, the binding result in assay [1] is reported as “binds”.

(Values after US20090214427A1 (LICENTIA, published 2009).)
